Experiments:
Assay in all cases: cytokine release
[1] = biological target: T1, TPTE peptide on HLA-DRB1*15:01 (human)
T1 peptide: DVVYIFFDIKLLRNI

[2] = biological target: T2, TPTE peptide on HLA-DRB1*15:01 (human)
T2 peptide: RRQQYFSDLFNILDT

[3] = biological target: T3, TPTE peptide on HLA-DRB1*15:01 (human)
T3 peptide: LFNILDTAIIVILLL

[4] = biological target: T4, TPTE peptide on HLA-DRB1*13:01 (human)
T4 peptide: KHFIIYSIPRYVRDLKIQI

[5] = biological target: T5, TPTE peptide on HLA-DRB1*07:01 (human)
T5 peptide: YIPLEYRSISLAIAL

[6] = biological target: T6, TPTE peptide on HLA-DRB1*07:01 (human)
T6 peptide: VFVERRQQYFSDLFN

[7] = biological target: T7, TPTE peptide on HLA-DQA1*01:02 / HLA-DQB1*06:02 (human)
T7 peptide: VLDNITTDKILIDVF

[8] = biological target: T8, TPTE peptide on HLA-DQA1*01:03 / HLA-DQB1*06:02 (human)
T8 peptide: VLDNITTDKILIDVF

[9] = biological target: T9, TPTE peptide on HLA-DQA1*01:03 / HLA-DQB1*06:03 (human)
T9 peptide: VLDNITTDKILIDVF

[10] = biological target: T10, TPTE peptide on HLA-DRB1*13:01 (human)
T10 peptide: VLLRVFVERRQQYFS

[11] = biological target: T11, TPTE peptide on HLA-DRB1*15:01 (human)
T11 peptide: IKKIVHSIVSSFAFG

[12] = biological target: T12, TPTE peptide on HLA-DRB1*13:01 (human)
T12 peptide: PPRRILFIKHFIIYS

[13] = biological target: T13, TPTE peptide on HLA-B*07:02 (human)
T13 peptide: PRWTHLLRL

[14] = biological target: T14, TPTE peptide on HLA-DRB1*13:01 (human)
T14 peptide: RRVSENKRRYTRDGF

B1: TCRCD4-TPT#79 (TCR, V domains shown)
Valpha: AQTVTQSQPEMSVQEAETVTLSCTYDTSESDYYLFWYKQPPSRQMILVIRQEAYKQQNATENRFSVNFQKAAKSFSLKISDSQLGDAAMYFCAYRSYNAGNMLTFGGGTRLMVKP
Vbeta: KAGVTQTPRYLIKTRGQQVTLSCSPISGHRSVSWYQQTPGQGLQFLFEYFSETQRNKGNFPGRFSGRQFSNSRSEMNVSTLELGDSALYLCASSDTSGGGGEQFFGPGTRLTVL
- binding result [1]: recognises
- binding result [2]: recognises
- binding result [3]: recognises

B2: TCRCD4-TPT#77 (TCR, V domains shown)
Valpha: AQKITQTQPGMFVQEKEAVTLDCTYDTSDPSYGLFWYKQPSSGEMIFLIYQGSYDQQNATEGRYSLNFQKARKSANLVISASQLGDSAMYFCAMREGLAKTSYDKVIFGPGTSLSVIP
Vbeta: GAVVSQHPSWVICKSGTSVKIECRSLDFQATTMFWYRQFPKQSLMLMATSNEGSKATYEQGVEKDKFLINHASLTLSTLTVTSAHPEDSSFYICSAPGTGHSAGELFFGEGSRLTVL
- binding result [4]: recognises

B3: TCRCD4-TPT#9 (TCR, V domains shown)
Valpha: QQQVKQSPQSLIVQKGGISIINCAYENTAFDYFPWYQQFPGKGPALLIAIRPDVSEKKEGRFTISFNKSAKQFSLHIMDSQPGDSATYFCAASFYTGNQFYFGTGTSLTVIP
Vbeta: DTAVSQTPKYLVTQMGNDKSIKCEQNLGHDTMYWYKQDSKKFLKIMFSYNNKELIINETVPNRFSPKSPDKAHLNLHINSLELGDSAVYFCASSQEALGGGYGYTFGSGTRLTVV
- binding result [5]: recognises
- binding result [6]: recognises

B4: TCRCD4-TPT#76 (TCR, V domains shown)
Valpha: AQSVTQPDIHITVSEGASLELRCNYSYGATPYLFWYVQSPGQGLQLLLKYFSGDTLVQGIKGFEAEFKRSQSSFNLRKPSVHWSDAAEYFCAVGAFTRGGSEKLVFGKGMKLTVNP
Vbeta: DGGITQSPKYLFRKEGQNVTLSCEQNLNHDAMYWYRQDPGQGLRLIYYSQIVNDFQKGDIAEGYSVSREKKESFPLTVTSAQKNPTAFYLCATGSYVGYEQYFGPGTRLTVT
- binding result [7]: recognises
- binding result [8]: recognises
- binding result [9]: recognises

B5: TCRCD4-TPT#59 (TCR, V domains shown)
Valpha: ELKVEQNPLFLSMQEGKNYTIYCNYSTTSDRLYWYRQDPGKSLESLFVLLSNGAVKQEGRLMASLDTKARLSTLHITAAVHDLSATYFCAVDNEFYFGTGTSLTVIP
Vbeta: DTGVSQDPRHKITKRGQNVTFRCDPISEHNRLYWYRQTLGQGPEFLTYFQNEAQLEKSRLLSDRFSAERPKGSFSTLEIQRTEQGDSAMYLCASSLLGAGNIQYFGAGTRLSVL
- binding result [10]: recognises

B6: TCRCD4-TPT#57 (TCR, V domains shown)
Valpha: AQSVSQHNHHVILSEAASLELGCNYSYGGTVNLFWYVQYPGQHLQLLLKYFSGDPLVKGIKGFEAEFIKSKFSFNLRKPSVQWSDTAEYFCAVNARDNAGKSTFGDGTTLTVKP
Vbeta: KAGVTQTPRYLIKTRGQQVTLSCSPISGHRSVSWYQQTPGQGLQFLFEYFSETQRNKGNFPGRFSGRQFSNSRSEMNVSTLELGDSALYLCASRGEPSSYEQYFGPGTRLTVT
- binding result [11]: recognises

B7: TCRCD4-TPT#82 (TCR, V domains shown)
Valpha: AQTVTQSQPEMSVQEAETVTLSCTYDTSESDYYLFWYKQPPSRQMILVIRQEAYKQQNATENRFSVNFQKAAKSFSLKISDSQLGDAAMYFCAYRSAGLLLTFGGGTRLMVKP
Vbeta: DGGITQSPKYLFRKEGQNVTLSCEQNLNHDAMYWYRQDPGQGLRLIYYSQIVNDFQKGDIAEGYSVSREKKESFPLTVTSAQKNPTAFYLCASSKAPGQGNTQGWEQYFGPGTRLTVT
- binding result [12]: recognises

B8: TCRCD8-TPT#35/2 (TCR, V domains shown)
Valpha: AQKVTQAQTEISVVEKEDVTLDCVYETRDTTYYLFWYKQPPSGELVFLIRRNSFDEQNEISGRYSWNFQKSTSSFNFTITASQVVDSAVYFCALIEAAAGNKLTFGGGTRVLVKP
Vbeta: NAGVTQTPKFRVLKTGQSMTLLCAQDMNHEYMYWYRQDPGMGLRLIHYSVGEGTTAKGEVPDGYNVSRLKKQNFLLGLESAAPSQTSVYFCASSDGYGYTFGSGTRLTVV
- binding result [13]: recognises

B9: TCRCD4-TPT#78 (TCR, V domains shown)
Valpha: AQSVTQLDSQVPVFEEAPVELRCNYSSSVSVYLFWYVQYPNQGLQLLLKYLSGSTLVKGINGFEAEFNKSQTSFHLRKPSVHISDTAEYFCAVGPNNFNKFYFGSGTKLNVKP
Vbeta: EPEVTQTPSHQVTQMGQEVILRCVPISNHLYFYWYRQILGQKVEFLVSFYNNEISEKSEIFDDQFSVERPDGSNFTLKIRSTKLEDSAMYFCASSPVGGYNSPLHFGNGTRLTVT
- binding result [14]: recognises

From US20190060430A1 (published 2019)
